doi:10.1101/2023.08.11.552962

Key:
[1] = target: MacMCM, minichromosome maintenance protein from Mancarchaeum acidiphilum (Mancarchaeum acidiphilum); test: SEC
[2] = target: MacMCM^E391Q, Walker B mutant of MacMCM (Mancarchaeum acidiphilum); test: SEC
[3] = target: MacMCM^ΔWHD.E391Q, MacMCM without the winged helix domain and with the Walker B mutation E391Q (Mancarchaeum acidiphilum); test: SEC
[4] = target: MacMCM^ΔWHD.E391Q, MacMCM without the winged helix domain and with the Walker B mutation E391Q (Mancarchaeum acidiphilum); test: crystal structure

Substance: MacMCM, minichromosome maintenance protein from Mancarchaeum acidiphilum (enzyme)
- stoichiometry N [1]: 6

Substance: MacMCM^E391Q, Walker B mutant of MacMCM (enzyme)
- stoichiometry N [2]: 6

Substance: MacMCM^ΔWHD.E391Q, MacMCM without the winged helix domain and with the Walker B mutation E391Q (domain or fragment)
- stoichiometry N [3]: 6
- stoichiometry N [4]: 6
